The values that follow come from publication PMC4909209.

In the assay the target is ubiquitin tagged Ac-AChBP (Aplysia californica acetylcholine binding protein) (Aplysia californica). The assay is described as follows: SEC; analytical Superdex 200 10/300 calibrated with molecular weight standards; oligomerization state in solution. (In general: SEC sorts molecules by how far they enter the pores of the column.)

As a reminder, the stoichiometry N is the number of molecules, sites or subunits per partner or assembly. The substance “ubiquitin tagged Ac-AChBP (Aplysia californica acetylcholine binding protein) (natural protein)” returned a stoichiometry N of 5.
